From patent publication US20210324028A1 (Pfizer, published 2021)
Positions count from the first letter of the chain named. Names and notes keep the numbering of the source.

T1: human IL-2Rβ (human, UniProt P14784 27-240, limits assumed)
T1 construct: also called hIL-2Rβ; IL-2 receptor beta
T1 sequence (looked up): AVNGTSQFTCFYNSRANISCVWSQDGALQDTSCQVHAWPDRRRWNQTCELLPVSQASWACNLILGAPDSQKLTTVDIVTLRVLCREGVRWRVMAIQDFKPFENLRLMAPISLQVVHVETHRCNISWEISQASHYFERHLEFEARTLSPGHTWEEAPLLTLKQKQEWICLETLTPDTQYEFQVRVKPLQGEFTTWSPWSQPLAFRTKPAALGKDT

B1: hIL-15 V49R/K11R (ligand)
chain: NWVNVISDLKRIEDLIQSMHIDATLYTESDVHPSCKVTAMKCFLLELQRISLESGDASIHDTVENLIILANNSLSSNGNVTESGCKECEELEEKNIKEFLQSFVHIVQMFINTGGGGSGHHHHHHHHGGGLNDIFEAQKIEWHE
B2: hIL-15 V49R/L69M (ligand)
chain: B1 chain with R11K, L69M
B3: hIL-15 V49R/N4M (ligand)
chain: B1 chain with N4M, R11K
B4: hIL-15 V49R/L69E (ligand)
chain: B1 chain with R11K, L69E
B5: hIL-15 V49R/N65K (ligand)
chain: B1 chain with R11K, N65K
B6: hIL-15 V49R/N1G (ligand)
chain: B1 chain with N1G, R11K
B7: hIL-15 V49R/L69T (ligand)
chain: B1 chain with R11K, L69T
B8: hIL-15 V49R/L69I (ligand)
chain: B1 chain with R11K, L69I
B9: hIL-15 V49R/N4W (ligand)
chain: B1 chain with N4W, R11K
B10: hIL-15 V49R/N1T (ligand)
chain: B1 chain with N1T, R11K
B11: hIL-15 V49R/N4E (ligand)
chain: B1 chain with N4E, R11K
B12: hIL-15 V49R/L69A (ligand)
chain: B1 chain with R11K, L69A
B13: hIL-15 V49R/N4G (ligand)
chain: B1 chain with N4G, R11K
B14: hIL-15 V49R/N1D (ligand)
chain: B1 chain with N1D, R11K
B15: hIL-15 V49R/N72S (ligand)
chain: B1 chain with R11K, N72S
B16: hIL-15 V49R/N4Q (ligand)
chain: B1 chain with N4Q, R11K
B17: hIL-15 V49R/L69D (ligand)
chain: B1 chain with R11K, L69D
B18: hIL-15 V49R/N1A (ligand)
chain: B1 chain with N1A, R11K
B19: hIL-15 V49R/Q108A (ligand)
chain: B1 chain with R11K, Q108A
B20: hIL-15 V49R/M109D (ligand)
chain: B1 chain with R11K, M109D
B21: hIL-15 V49R/N1E (ligand)
chain: B1 chain with N1E, R11K
B22: hIL-15 V49R/K11S (ligand)
chain: B1 chain with R11S
B23: hIL-15 V49R/N4D (ligand)
chain: B1 chain with N4D, R11K
B24: hIL-15 V49R/Q108S (ligand)
chain: B1 chain with R11K, Q108S
B25: hIL-15 V49R/S7E (ligand)
chain: B1 chain with S7E, R11K
B26: hIL-15 V49R/Q108D (ligand)
chain: B1 chain with R11K, Q108D
B27: hIL-15 V49R/K11Y (ligand)
chain: B1 chain with R11Y
B28: hIL-15 V49R/S7N (ligand)
chain: B1 chain with S7N, R11K
B29: hIL-15 V49R/N1H (ligand)
chain: B1 chain with N1H, R11K
B30: hIL-15 V49R/M109S (ligand)
chain: B1 chain with R11K, M109S
B31: hIL-15 V49R/N1S (ligand)
chain: B1 chain with N1S, R11K
B32: hIL-15 V49R/N4L (ligand)
chain: B1 chain with N4L, R11K
B33: hIL-15 V49R/S7D (ligand)
chain: B1 chain with S7D, R11K
B34: hIL-15 V49R/S7G (ligand)
chain: B1 chain with S7G, R11K
B35: hIL-15 V49R/M109K (ligand)
chain: B1 chain with R11K, M109K
B36: hIL-15 V49R/K11V (ligand)
chain: B1 chain with R11V
B37: hIL-15 V49R/N72K (ligand)
chain: B1 chain with R11K, N72K
B38: hIL-15 V49R/S7A (ligand)
chain: B1 chain with S7A, R11K
B39: hIL-15 V49R/S7H (ligand)
chain: B1 chain with S7H, R11K
B40: hIL-15 V49R/N65D (ligand)
chain: B1 chain with R11K, N65D
B41: hIL-15 V49R/N4A (ligand)
chain: B1 chain with N4A, R11K
B42: hIL-15 V49R/N72D (ligand)
chain: B1 chain with R11K, N72D
B43: hIL-15 V49R/N72A (ligand)
chain: B1 chain with R11K, N72A
B44: hIL-15 V49R/Q108K (ligand)
chain: B1 chain with R11K, Q108K
B45: hIL-15 V49R/S7K (ligand)
chain: B1 chain with S7K, R11K
B46: hIL-15 V49R/N1K (ligand)
chain: B1 chain with N1K, R11K
B47: hIL-15 V49R/L69V (ligand)
chain: B1 chain with R11K, L69V
B48: hIL-15 V49R/N4H (ligand)
chain: B1 chain with N4H, R11K
B49: hIL-15 V49R/M109A (ligand)
chain: B1 chain with R11K, M109A
B50: hIL-15 V49R/N1Q (ligand)
chain: B1 chain with N1Q, R11K
B51: hIL-15 V49R/L69S (ligand)
chain: B1 chain with R11K, L69S
B52: hIL-15 V49R/K11T (ligand)
chain: B1 chain with R11T

Target: T2, human IL-15Rα (human, UniProt Q13261 31-205, limits assumed)
T2 construct: also called hIL-15Rα; IL-15 receptor alpha
T2 sequence (Q13261 31-205 limits assumed): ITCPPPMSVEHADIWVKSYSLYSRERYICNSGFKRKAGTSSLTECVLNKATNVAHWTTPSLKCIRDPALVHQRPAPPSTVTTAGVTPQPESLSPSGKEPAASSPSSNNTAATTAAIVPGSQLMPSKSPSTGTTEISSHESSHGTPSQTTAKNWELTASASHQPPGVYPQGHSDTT
Assay: SPR, steady state

| Kd [nM] | Binder |
| --- | --- |
| 140 | B1 |
| 74.5 | B2 |
| 88.1 | B3 |
| 47.8 | B4 |
| 201 | B5 |
| 160 | B6 |
| 63.6 | B7 |
| 93.1 | B8 |
| 143 | B9 |
| 104 | B10 |
| 79.8 | B11 |
| 82.9 | B12 |
| 105 | B13 |
| 105 | B14 |
| 118 | B15 |
| 59.5 | B16 |
| 65.6 | B17 |
| 175 | B18 |
| 161 | B19 |
| 288 | B20 |
| 171 | B21 |
| 194 | B22 |
| 103 | B23 |
| 144 | B24 |
| 87.6 | B25 |
| 125 | B26 |

| Kd [nM] | Binder |
| --- | --- |
| 219 | B27 |
| 93.2 | B28 |
| 151 | B29 |
| 190 | B30 |
| 140 | B31 |
| 98.6 | B32 |
| 121 | B33 |
| 147 | B34 |
| 215 | B35 |
| 142 | B36 |
| 101 | B37 |
| 84 | B38 |
| 75.6 | B39 |
| 121 | B40 |
| 98 | B41 |
| 105 | B42 |
| 117 | B43 |
| 85.4 | B44 |
| 103 | B45 |
| 264 | B46 |
| 85.5 | B47 |
| 81.5 | B48 |
| 198 | B49 |
| 115 | B50 |
| 78.2 | B51 |
| 169 | B52 |

Target: T1, human IL-2Rβ
Assay: SPR, steady state

| Kd [nM] | Binder |
| --- | --- |
| 138 | B1 |
| > 1000 | B2 |
| 233 | B3 |
| > 1000 | B4 |
| 193 | B5 |
| > 500 | B6 |
| > 1000 | B7 |
| 306 | B8 |
| 438 | B9 |
| 249 | B10 |
| 311 | B11 |
| > 500 | B12 |
| > 500 | B13 |
| 311 | B14 |
| 182 | B15 |
| > 500 | B16 |
| > 500 | B17 |
| 398 | B18 |
| 462 | B19 |
| 339 | B20 |
| 340 | B21 |
| 453 | B22 |
| 365 | B23 |
| 290 | B24 |
| > 500 | B25 |
| 215 | B26 |

| Kd [nM] | Binder |
| --- | --- |
| 143 | B27 |
| > 500 | B28 |
| 235 | B29 |
| 362 | B30 |
| 194 | B31 |
| 429 | B32 |
| > 500 | B33 |
| > 500 | B34 |
| > 500 | B35 |
| 110 | B36 |
| > 500 | B37 |
| 220 | B38 |
| 354 | B39 |
| > 500 | B40 |
| > 500 | B41 |
| 101 | B42 |
| 148 | B43 |
| 249 | B44 |
| > 500 | B45 |
| > 500 | B46 |
| > 1000 | B47 |
| 96.4 | B48 |
| > 500 | B49 |
| > 500 | B50 |
| > 500 | B51 |
| 225 | B52 |
